{
  "source": "patent US8933202B2",
  "about": "“AXL antibodies” (U3 Pharma GmbH, priority 2007, dated 2015)",
  "key": {"p42/p44 MAP-Kinase": {"tested_on": "p42/p44 MAP-Kinase", "test": "p42/p44 MAP-Kinase phosphorylation ELISA, rat versus chimeric antibody", "assay_type": "cell-based, human", "settings": "50 ng/ml to 10 μg/ml antibody, 400 ng/ml Gas6; CaSki", "method": "To additionally verify whether the rat anti-Axl antibodies of the invention and the corresponding chimeric anti-Axl antibodies of the invention were also able to inhibit Gash-induced activation of p42/p44 MAP-Kinase in CaSki cervical cancer cells to similar extent, ELISA experiments were performed. Here, Gas6-induced p42/p44 MAP-Kinase activation was detected by increased protein (Thr202/Tyr204) phosphorylation. In brief, on the first day, 2×10^4 cells per well were seeded in flat-bottom 96 well plates. The next day, normal growth medium was replaced by serum-free medium to starve cells for 24 h. Thereafter, cells were pre-incubated with 50 ng/ml, 100 ng/ml, 300 ng/ml, 750 ng/ml, 1 μg/ml, and 10 μg/ml of rat anti-Axl antibody 11B7 or chimeric anti-Axl antibody ch11B7 for 1 h at 37° C. and then treated with or without 400 ng/ml Gas6 (R&D Systems) for 10 min at 37° C. Medium was flicked out and cells were fixed with 4% formaldehyde in PBS (pH 7.5) for 30 min at room temperature. Formaldehyde solution was removed and cells were washed twice with wash buffer (PBS, 0.1% Tween 20). Cells were quenched with 1% H2O2, 0.1% NaN3 in wash buffer and incubated for 20 min at room temperature. […] Tetramethylbenzidine (TMB, Calbiochem) was added and monitored at 620 nm."}, "[1]": {"tested_on": "NIH3T3-AXL cl.7 fibroblasts", "test": "Boyden chamber/transwell migration assay", "assay_type": "cell-based", "settings": "10 μg/ml antibody, with or without 400 ng/ml Gas6, 7 h", "method": "Transmigration experiments were performed in order to investigate whether the antibodies of the invention block cell migration. For this purpose, in the morning of day 1, NIH3T3-AXL cl.7 cells were seeded on 15 cm dished in normal growth medium, which in the evening was replaced by serum-reduced medium (DMEM, 0.5% FCS) in order to starve cells for 36 h. The next day, a FluoroBlock 96 well plate (Becton Dickinson #351164, 8 μm pore size) was coated with 10 μg collagen 1/ml 0.1 M acetic acid over night at 37° C. On day 3, the serum-reduced medium (DMEM, 0.5% FCS) was replaced by serum-free medium (DMEM, 0% FCS, 0.1% BSA) for another 4 h. Cells were harvested with 10 mM EDTA in PBS and pre-incubated with rat anti-AXL antibodies 4A6, 11B7 or 2A1 at a cell density of 4×10^5 cells/ml and an antibody concentration of 10 μg/ml for 45 min. 50 μl cell suspension (20,000 cells) per well were then placed in the top chamber of the FluoroBlock 96-well plate, 225 μl medium (DMEM, 0% FCS, 0.1% BSA) with or without 400 ng/ml mouse Gas6 (R&D Systems) were used per well in the bottom chamber. Cells were left to migrate for 7 h at 37° C. and stained afterwards with 4.2 μM calcein-AM (Molecular Probes #C3099) in PBS, 1 mM CaCl2, 1 mM MgCl2 for 1 h at 37° C. Using a Victor plate reader (Perkin Elmer), the fluorescence of each well was measured at a wavelength of 530 nm."}},
  "data": [
    {"molecule": "11B7: antagonistic rat anti-AXL monoclonal antibody, rat IgG1 (antibody, V domains shown) VL: DIQMTQAPSSLPASLGDRVTITCRASQDIGNYLRWFQQKPGKSPRLMISGATNLAAGVPSRFSGSRSGSDYSLTISSLESEDMADYYCLQSKESPWTFGGGTKLELK VH: EVQLQESGPGLVKPSQSLSLTCSVTGYSITSNYWGWIRKFPGDKMEWMGYITYSGSTSYNPSLKSRISITRDTSKNQFFLQLNSVTSEDTATYYCAITTFYYWGQGVMVTVSS", "values": [
      {"measurement": "Gas6-induced p42/p44 MAP-Kinase activation, concentration-dependent", "setting": "p42/p44 MAP-Kinase", "result": "able to block Gas6-induced activation of p42/p44 MAP-Kinase in CaSki cervical cancer cells to similar extent"},
      {"measurement": "directed cell migration", "setting": "[1]", "result": "reduced both basal and Gas6-induced migration"}
    ]}
  ]
}
